Results as given in patent publication US10927354B2, “D-type amino acid dehydrogenase” (Kureha Corporation, priority 2017, dated 2021).

Columns and labels:
[1] = test system: D-type amino acid dehydrogenase derived from N. massiliense; assay: Kinetic analysis of D-type amino acid dehydrogenase; type: biochemical, Numidum massiliense; conditions: meso-diaminopimelic acid as substrate, NADP^+ or NAD^+ as coenzyme; values for meso-diaminopimelic acid determined using NADP^+
Procedure: The absorbance was measured by an ultraviolet-visible spectrophotometer UV-1800 (available from SHIMADZU). The specific activity of the enzyme was calculated from the concentration of the enzyme used and enzyme dilution rate using the obtained absorbance change and the following equation. […] A turnover number (kcat) as a reaction rate parameter, a Michaelis constant (Km) value, and catalytic efficiency (kcat/Km) were determined with Igor Pro ver. 3.14 (available from WaveMetrics) based on Michaelis-Menten equation after the initial velocities were plotted against different substrates and coenzyme concentrations.

[2] = Activity-staining with D-alanine or L-alanine; type: biochemical; conditions: 10 mM D-alanine or L-alanine, 1.25 mM NADP^+, pH 8.0, 50° C., 30 minutes
Procedure: The activity was evaluated for the D-type amino acid dehydrogenase obtained in Example 2 above. The activity of the enzyme was evaluated by an activity-staining method due to a catalytic reaction of the enzyme. More specifically, an appropriate amount of enzyme solution was subjected to disc gel electrophoresis. […] 2-(4-iodophenyl)-3-(4-nitrophenyl)-5-phenyl-2H-tetrazolium chloride in the reaction solution is reduced to form a […] formazan. A reaction formula is indicated below. In the following reaction formula, the D-type amino acid dehydrogenase is referred to as “meso-DAPDH”.

[3] = Optimum pH in catalytic reaction (deamination of meso-diaminopimelic acid); type: biochemical; conditions: deamination of 10 mM meso-diaminopimelic acid, 1.25 mM NADP^+, 50° C.
Procedure: The optimum pH was evaluated for the D-type amino acid dehydrogenase obtained in Example 2. The activity of the enzyme was measured by determining an increase in absorbance at wavelength of 340 nm of NADPH produced by the catalytic reaction of the enzyme.
The absorbance was measured by an ultraviolet-visible spectrophotometer UV-1800 (available from SHIMADZU). The specific activity of the enzyme was calculated from the concentration of the enzyme used and enzyme dilution rate using the obtained absorbance change and the following equation.

[4] = Optimum temperature in catalytic reaction; type: biochemical; conditions: deamination of meso-diaminopimelic acid, NADP^+, 50-80° C. tested
Procedure: The measurement results are illustrated in FIG. 6. From the results, it was confirmed that the optimum temperature for activity was about 75° C.

[5] = pH stability of D-type amino acid dehydrogenase; type: physicochemical; conditions: pH 5.5 to 9.5, 50° C., 30 minutes; relative to pH 5.5 as 100%
Procedure: The D-type amino acid dehydrogenase purified in Example 2 was subjected to a heat treatment at 50° C., in 100 mM of each buffer solution (pH 4.0, 4.5, 5.0, 5.5, 6.0, 6.5, 7.0, 7.5, 8.0, 8.5, 9.0, 9.5, 10.0, 10.5, 11.0, 11.3, 12.0, 12.3, or 13.0) for 30 minutes to confirm residual activity after being left to stand for 5 minutes on ice. […] The residual activity after treatment at other pH was calculated as a relative activity with treatment at pH 5.5 as 100%.

[6] = Coenzyme dependence by activity-staining; type: biochemical; conditions: 10 mM meso-diaminopimelic acid, 1.25 mM coenzyme, pH 8.0, 50° C., 30 minutes
Procedure: The coenzyme dependence was evaluated for the D-type amino acid dehydrogenase obtained in Example 2 above. The coenzyme dependence of the enzyme was evaluated by an activity-staining method due to a catalytic reaction of the enzyme.
More specifically, an appropriate amount of enzyme solution was subjected to disc gel electrophoresis. […] The 2-(4-iodophenyl)-3-(4-nitrophenyl)-5-phenyl-2H-tetrazolium chloride in the reaction solution is reduced to form a […] formazan. A reaction formula is indicated below. In the following reaction formula, the D-type amino acid dehydrogenase is referred to as “meso-DAPDH”.

[7] = Thermal stability of D-type amino acid dehydrogenase; type: physicochemical; conditions: 60° C., 30 minutes, 10 mM phosphate buffer pH 7.2; relative to treatment at 40° C. as 100%
Procedure: The D-type amino acid dehydrogenase purified in Example 2 was heat-treated in 10 mM phosphate buffer solution (pH 7.2) under various temperature conditions (40° C., 45° C., 50° C., 55° C., 60° C., 65° C., or 70° C.) for 30 minutes to confirm residual activity after being left to stand for 5 minutes on ice. […] The residual activity after treatment at other temperatures was calculated as a relative activity with treatment at 40° C. as 100%.

Molecule	kcat [1]	D/L selectivity (activity-staining) [2]	optimum pH for activity [3]	optimum temperature for activity [4]	residual activity after pH treatment [5]	coenzyme dependence (activity-staining) [6]	residual activity after heat treatment [7]
NC(=O)c1ccc[n+]([C@@H]2O[C@H](COP(=O)([O-])OP(=O)(O)OC[C@H]3O[C@@H](n4cnc5c(N)ncnc54)[C@H](O)[C@@H]3O)[C@@H](O)[C@H]2O)c1 [NAD^1]	8930 s⁻¹	–	–	–	–	–	–
D-type amino acid dehydrogenase: D-type amino acid dehydrogenase derived from N. massiliense, amino acid sequence SEQ ID NO: 2, hexamer (protein, hexamer; Numidum massiliense) MSNVYNVAVVGYGNIGKYAVQAIDAAPDMQLAGVVRRASSAAKDTPPELVGRRVVHDIRDLEQVDVAILAAPTRTIPAYARDVLSLGIHTVDSYDIHGELANLRRELDDVSKKNDSVAIISAGWDPGTDSMIRGMLEFMAPGGLTYTNFGPGMSMGHSVAVKAIDGVKDALSLTIPLGTSIHRRMVYVELEAGADFETVKKAILADPYFVNDETHVTQVPNVQQLVNVGHGVSMERRGVSGATHNQLFTFEMRINNPALTSQVLVAAARATFKQQPGAYTMIEVPVIDYLPGDRDDIIRRLV	–	selectively acts on the D-amino acid	10.5	about 75 °C	≥ 90%	utilized both NAD^+ and NADP^+ coenzymes	about 76%
